In publication PMC4326362, “Non-canonical regulation of phosphatidylinositol 3-kinase gamma isoform activity in retinal rod photoreceptor cells” (Cell Communication and Signaling : CCS, 2015):

Experiments:
Assay in all cases: co-IP; Flag-tagged CTR-CNGA1 (wild type or mutant) and Myc-tagged RA domains co-expressed in HEK-293T cells; reciprocal immunoprecipitation with anti-Flag or anti-Myc antibodies (IgG as control), immunoblot, densitometry
Conditions in all cases: partners not purified
CTR-CNGA1 (D577N) = target: T1, CTR-CNGA1 (D577N) (UniProt Q00194 483-690, D577N)
T1 construct: CNGA1 C-terminal region, residues 483-690, with D577N; Mutant of m1 made by site-directed mutagenesis; source: HEK-293T, transfected (pCDNA3), in lysate; not shown: FLAG, N-terminal, kept
T1 sequence (looked up): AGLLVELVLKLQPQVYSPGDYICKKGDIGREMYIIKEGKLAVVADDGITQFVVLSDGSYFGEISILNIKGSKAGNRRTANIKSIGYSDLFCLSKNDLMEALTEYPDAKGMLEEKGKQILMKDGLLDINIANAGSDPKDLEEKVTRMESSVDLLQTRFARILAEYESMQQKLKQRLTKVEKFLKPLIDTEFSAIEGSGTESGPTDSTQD

CTR-CNGA1 (E581Q) = target: T2, CTR-CNGA1 (E581Q) (UniProt Q00194 483-690, E581Q)
T2 construct: CNGA1 C-terminal region, residues 483-690, with E581Q; Mutant of m1 made by site-directed mutagenesis; source: HEK-293T, transfected (pCDNA3), in lysate; not shown: FLAG, N-terminal, kept
T2 sequence (looked up): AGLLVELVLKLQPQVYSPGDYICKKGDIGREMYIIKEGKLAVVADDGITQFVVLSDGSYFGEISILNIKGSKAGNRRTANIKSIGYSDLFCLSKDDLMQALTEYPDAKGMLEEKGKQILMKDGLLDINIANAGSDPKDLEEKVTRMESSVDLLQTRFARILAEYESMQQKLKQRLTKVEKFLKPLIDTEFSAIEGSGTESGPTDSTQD

CTR-CNGA1 (D577,578 N) = target: T3, CTR-CNGA1 (D577,578 N) (UniProt Q00194 483-690, D577,578 N | D577,578 N)
T3 construct: CNGA1 C-terminal region, residues 483-690, with D577N and D578N; Mutant of m1 made by site-directed mutagenesis; source: HEK-293T, transfected (pCDNA3), in lysate; not shown: FLAG, N-terminal, kept
T3 sequence (looked up): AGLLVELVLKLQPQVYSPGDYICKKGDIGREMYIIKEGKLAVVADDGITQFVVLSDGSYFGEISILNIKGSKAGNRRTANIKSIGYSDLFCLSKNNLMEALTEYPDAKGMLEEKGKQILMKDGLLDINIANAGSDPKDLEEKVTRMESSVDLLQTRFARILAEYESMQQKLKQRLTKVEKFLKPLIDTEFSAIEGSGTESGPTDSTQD

B1: Myc-tagged RA domain of PI3Kγ (residues 141-311) (domain or fragment, UniProt P48736 141-311, looked up)
chain: HPPSEESQAFQRQLTALIGYDVTDVSNVHDDELEFTRRGLVTPRMAEVASRDPKLYAMHPWVTSKPLPEYLWKKIANNCIFIVIHRSTTSQTIKVSPDDTPGAILQSFFTKMAKKKSLMDIPESQSEQDFVLRVCGRDEYLVGETPIKNFQWVRHCLKNGEEIHVVLDTPP
notes: also called RA-PI3Kγ; PI3Kγ-RA; source: HEK-293T, transfected (pCDNA3), in lysate
In the case of B1, the “percent disruption of the interaction against wild type” value (from here on “percent disruption of the interaction”) (CTR-CNGA1 (D577N)) is reported as 30 percent, the “percent disruption of the interaction” value (CTR-CNGA1 (E581Q)) is reported as 50 percent and the “percent disruption of the interaction” value (CTR-CNGA1 (D577,578 N)) is reported as 45 percent.
